Results: IntAct's records for PubMed 15234987

Transforming acidic coiled-coil-containing protein 3 (Mus musculus), Q9JJ11 R619A;I620A, sequence (Q9JJ11 whole entry R619A/I620A): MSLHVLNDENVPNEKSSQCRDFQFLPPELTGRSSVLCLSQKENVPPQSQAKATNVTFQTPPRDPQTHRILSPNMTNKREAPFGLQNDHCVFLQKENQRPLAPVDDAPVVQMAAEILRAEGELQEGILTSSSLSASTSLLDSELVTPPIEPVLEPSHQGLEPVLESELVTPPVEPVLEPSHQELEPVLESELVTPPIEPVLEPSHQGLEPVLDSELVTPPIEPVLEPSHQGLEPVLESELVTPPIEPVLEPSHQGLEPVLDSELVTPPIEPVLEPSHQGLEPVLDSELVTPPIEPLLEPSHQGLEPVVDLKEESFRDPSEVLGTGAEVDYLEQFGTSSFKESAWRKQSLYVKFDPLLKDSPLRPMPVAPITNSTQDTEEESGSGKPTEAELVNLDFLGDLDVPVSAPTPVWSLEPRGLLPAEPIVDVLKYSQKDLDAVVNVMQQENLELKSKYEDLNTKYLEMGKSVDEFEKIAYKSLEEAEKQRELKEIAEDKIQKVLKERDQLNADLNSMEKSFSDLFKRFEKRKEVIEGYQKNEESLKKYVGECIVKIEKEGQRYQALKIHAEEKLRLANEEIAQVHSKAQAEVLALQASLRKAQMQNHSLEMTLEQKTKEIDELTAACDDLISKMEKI
Transforming acidic coiled-coil-containing protein 3 (Mus musculus), Q9JJ11 I625A;S626A, sequence (Q9JJ11 whole entry I625A/S626A): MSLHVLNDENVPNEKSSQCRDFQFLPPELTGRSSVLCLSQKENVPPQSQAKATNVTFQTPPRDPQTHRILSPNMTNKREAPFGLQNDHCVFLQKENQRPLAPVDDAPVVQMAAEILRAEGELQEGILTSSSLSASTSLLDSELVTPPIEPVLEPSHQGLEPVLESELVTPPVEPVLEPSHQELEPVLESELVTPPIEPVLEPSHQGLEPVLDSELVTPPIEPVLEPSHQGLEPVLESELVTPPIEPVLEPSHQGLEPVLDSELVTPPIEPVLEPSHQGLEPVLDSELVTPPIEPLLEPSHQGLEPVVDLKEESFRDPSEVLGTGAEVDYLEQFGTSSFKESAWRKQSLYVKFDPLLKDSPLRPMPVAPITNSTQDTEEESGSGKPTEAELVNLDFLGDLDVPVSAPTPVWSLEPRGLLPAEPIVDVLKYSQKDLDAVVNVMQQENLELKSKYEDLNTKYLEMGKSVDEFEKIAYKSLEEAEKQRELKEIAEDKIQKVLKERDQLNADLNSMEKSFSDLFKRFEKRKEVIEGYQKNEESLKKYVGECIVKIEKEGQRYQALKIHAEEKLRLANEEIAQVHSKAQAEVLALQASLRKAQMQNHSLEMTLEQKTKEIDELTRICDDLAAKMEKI
Transforming acidic coiled-coil-containing protein 3 (Mus musculus), Q9JJ11 E629A;K630A, sequence (Q9JJ11 whole entry E629A/K630A): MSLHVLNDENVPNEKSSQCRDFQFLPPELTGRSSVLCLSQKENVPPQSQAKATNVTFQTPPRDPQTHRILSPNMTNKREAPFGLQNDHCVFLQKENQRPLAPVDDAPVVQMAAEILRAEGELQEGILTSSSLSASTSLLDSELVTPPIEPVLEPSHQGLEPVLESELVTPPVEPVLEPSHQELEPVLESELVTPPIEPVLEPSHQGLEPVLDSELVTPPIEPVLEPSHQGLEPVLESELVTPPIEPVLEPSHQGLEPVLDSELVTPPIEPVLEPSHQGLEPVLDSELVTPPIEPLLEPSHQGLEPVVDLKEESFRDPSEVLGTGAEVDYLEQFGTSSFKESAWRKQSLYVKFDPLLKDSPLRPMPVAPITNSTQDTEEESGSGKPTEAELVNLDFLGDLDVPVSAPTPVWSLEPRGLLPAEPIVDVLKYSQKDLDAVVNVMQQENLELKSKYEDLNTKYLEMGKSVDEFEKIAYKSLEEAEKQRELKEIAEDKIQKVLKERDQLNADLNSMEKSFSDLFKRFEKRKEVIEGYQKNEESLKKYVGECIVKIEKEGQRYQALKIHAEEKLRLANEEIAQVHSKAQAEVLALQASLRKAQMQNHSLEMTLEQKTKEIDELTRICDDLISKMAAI
Transforming acidic coiled-coil-containing protein 3 (Mus musculus), Q9JJ11 D615A;E616A, sequence (Q9JJ11 whole entry D615A/E616A): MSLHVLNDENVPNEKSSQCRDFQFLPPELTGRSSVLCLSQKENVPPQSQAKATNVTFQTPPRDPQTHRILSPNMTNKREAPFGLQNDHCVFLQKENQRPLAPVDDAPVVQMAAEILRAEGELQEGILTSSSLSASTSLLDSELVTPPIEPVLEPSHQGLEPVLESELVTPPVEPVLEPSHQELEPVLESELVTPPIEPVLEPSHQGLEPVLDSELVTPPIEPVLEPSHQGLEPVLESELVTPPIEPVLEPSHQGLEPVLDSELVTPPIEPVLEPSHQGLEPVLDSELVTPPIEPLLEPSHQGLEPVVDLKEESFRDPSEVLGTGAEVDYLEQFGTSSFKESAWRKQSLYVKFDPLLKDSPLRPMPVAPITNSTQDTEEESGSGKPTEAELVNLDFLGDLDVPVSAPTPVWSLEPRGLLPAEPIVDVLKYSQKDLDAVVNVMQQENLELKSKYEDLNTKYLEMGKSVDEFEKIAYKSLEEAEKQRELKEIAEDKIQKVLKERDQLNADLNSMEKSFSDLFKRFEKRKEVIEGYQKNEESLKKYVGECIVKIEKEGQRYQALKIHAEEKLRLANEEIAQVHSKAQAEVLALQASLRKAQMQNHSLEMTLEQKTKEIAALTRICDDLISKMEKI
Transforming acidic coiled-coil-containing protein 3 (Mus musculus), Q9JJ11 D622A;D623A, sequence (Q9JJ11 whole entry D622A/D623A): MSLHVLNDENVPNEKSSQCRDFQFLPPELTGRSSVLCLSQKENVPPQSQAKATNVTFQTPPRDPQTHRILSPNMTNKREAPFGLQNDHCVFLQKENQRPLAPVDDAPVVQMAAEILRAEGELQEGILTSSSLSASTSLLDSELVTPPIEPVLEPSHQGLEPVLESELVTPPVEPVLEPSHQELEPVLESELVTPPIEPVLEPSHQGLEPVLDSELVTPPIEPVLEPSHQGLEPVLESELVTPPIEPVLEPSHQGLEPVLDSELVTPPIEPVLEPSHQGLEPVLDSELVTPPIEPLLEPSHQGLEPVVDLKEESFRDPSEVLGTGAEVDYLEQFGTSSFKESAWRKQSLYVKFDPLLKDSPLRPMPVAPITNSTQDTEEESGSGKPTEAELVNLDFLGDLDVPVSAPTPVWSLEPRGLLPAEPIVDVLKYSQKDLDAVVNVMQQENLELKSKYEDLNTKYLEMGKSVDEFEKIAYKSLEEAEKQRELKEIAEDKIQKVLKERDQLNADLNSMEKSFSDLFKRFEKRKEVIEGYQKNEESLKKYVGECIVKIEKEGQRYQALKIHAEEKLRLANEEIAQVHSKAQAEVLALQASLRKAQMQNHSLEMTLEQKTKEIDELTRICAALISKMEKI

What follows are substances tested against fog1_mouse Zfpm1 (UniProt O35615).
fog1_mouse Zfpm1, sequence (O35615 whole entry): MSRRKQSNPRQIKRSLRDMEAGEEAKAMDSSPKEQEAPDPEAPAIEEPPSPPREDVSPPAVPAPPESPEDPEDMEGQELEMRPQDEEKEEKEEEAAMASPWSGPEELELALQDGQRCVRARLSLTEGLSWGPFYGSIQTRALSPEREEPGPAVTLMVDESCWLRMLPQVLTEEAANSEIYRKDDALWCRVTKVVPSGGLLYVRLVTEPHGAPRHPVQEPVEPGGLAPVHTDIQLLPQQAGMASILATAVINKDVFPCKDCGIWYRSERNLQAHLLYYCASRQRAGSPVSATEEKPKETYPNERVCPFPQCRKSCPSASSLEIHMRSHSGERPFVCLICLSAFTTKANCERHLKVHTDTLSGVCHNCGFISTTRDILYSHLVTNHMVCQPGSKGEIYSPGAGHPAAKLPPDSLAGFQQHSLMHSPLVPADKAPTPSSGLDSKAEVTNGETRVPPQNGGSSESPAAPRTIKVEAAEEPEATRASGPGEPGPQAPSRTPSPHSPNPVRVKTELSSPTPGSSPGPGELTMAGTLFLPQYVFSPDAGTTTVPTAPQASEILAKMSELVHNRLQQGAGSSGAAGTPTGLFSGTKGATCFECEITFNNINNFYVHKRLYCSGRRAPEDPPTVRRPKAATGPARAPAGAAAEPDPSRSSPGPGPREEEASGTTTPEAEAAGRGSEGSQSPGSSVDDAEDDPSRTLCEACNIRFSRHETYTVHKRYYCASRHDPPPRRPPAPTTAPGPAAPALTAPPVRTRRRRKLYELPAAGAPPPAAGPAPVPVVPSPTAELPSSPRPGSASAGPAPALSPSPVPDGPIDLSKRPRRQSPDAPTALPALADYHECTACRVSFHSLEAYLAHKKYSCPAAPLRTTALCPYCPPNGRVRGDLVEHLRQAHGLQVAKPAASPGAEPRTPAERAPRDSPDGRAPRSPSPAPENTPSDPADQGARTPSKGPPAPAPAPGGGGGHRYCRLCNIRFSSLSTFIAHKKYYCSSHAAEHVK
With “Transforming acidic coiled-coil-containing protein 3 (Mus musculus), Q9JJ11 I625A;S626A” the “effect of a mutation on the interaction” value was “decreasing interaction”.
“Transforming acidic coiled-coil-containing protein 3 (Mus musculus), Q9JJ11 D622A;D623A” was tested, and the “effect of a mutation on the interaction” value was “decreasing interaction”.
“Transforming acidic coiled-coil-containing protein 3 (Mus musculus), Q9JJ11 E629A;K630A” was tested, and the “effect of a mutation on the interaction” value was “decreasing interaction”.
With “Transforming acidic coiled-coil-containing protein 3 (Mus musculus), Q9JJ11 R619A;I620A” the “effect of a mutation on the interaction” value was “decreasing interaction”.
In the case of “Transforming acidic coiled-coil-containing protein 3 (Mus musculus), Q9JJ11 D615A;E616A”, the “effect of a mutation on the interaction” value is reported as “decreasing interaction”.
